Among the data in the supplement of paper PMC10567573 are protein stability index values, retold here.

± gives the standard deviation.

The data set can be described thus: protein stability index of a GFP-peptide fusion (GPS, HEK-293T) (PSI 1-6); higher = more stable.
Where [1] appears, read: treatment: DMSO, c terminus: a fixed tail appended.
Where [2] appears, read: treatment: MLN4924 1 uM, 8 h, c terminus: a fixed tail appended.
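Also: 24-mer peptide tiles fused after GFP, lentivirally expressed, FACS-sorted into six equal bins by GFP/DsRed ratio, decoded by Illumina sequencing, PSI is the read-weighted mean bin number.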

For CNGILTEKMEEEEQTCDPDSSLHW [ZNF396], the protein stability index reads like this: under setting [1], 5.13 ± 0.18; under setting [2], 5.01 ± 0.28.

Regarding CNTFVYSSSKGTIRLCDMRASALC [PPP2R2B], the protein stability index under setting [1] is 2.5 ± 0.53 and the protein stability index under setting [2] is 2.34 ± 0.51.

Sequence CPLTRSNGDLSRSLSPSPLGSSAA [FCHO1] displayed a protein stability index under setting [1] of 4.17 ± 0.22 and a protein stability index under setting [2] of 4.17 ± 0.33.

As for CQGVSEAAHRLARRLYHLEGFQRC [PSD2], the protein stability index came to 2.41 ± 0.21 under setting [1] and 2.54 ± 0.17 under setting [2].

Take CQLALQQKRETLSPLCLIPMVTSP [KCTD13]: the protein stability index worked out at 2.27 ± 0.16 under setting [1] and 2.19 ± 0.17 under setting [2].

As to CRKFPRDMKAMSPENQEYFEKHRW [RHOBTB2], the protein stability index under setting [1] is 3.22 ± 0.2 and the protein stability index under setting [2] was found to be 3.18 ± 0.29.

Regarding CSSFMAPPVTDLGELRRRPGDMKT [CPOX], the protein stability index by setting is: under setting [1], 3.43 ± 0.3; under setting [2], 3.31 ± 0.48.

CTDHELENHSMYCVQCKMPVCYQC [TRIM9]: the protein stability index under setting [1] amounted to 4.23 ± 0.23 and the protein stability index under setting [2] worked out at 4.33 ± 0.36.

As to CYEHFAELDIPQSVQQNGSIYIHV [CLPTM1], the protein stability index came out at 2.75 ± 0.48 under setting [1] and 2.98 ± 0.45 under setting [2].

On to DAAAILLDEQNKRPCRKFLLTGQC [ZMAT5], for which the protein stability index was determined as 2.98 ± 0.45 under setting [1] and 3 ± 0.59 under setting [2].

As for DAGSPYLIGLISDRLRRNWPPSFL [SPNS1], the protein stability index runs as follows: under setting [1], 2.22 ± 0.28; under setting [2], 2.08 ± 0.25.

DAINEEIRMIQEEKESTELRAEEI [PPFIA4]: the protein stability index is 5.71 ± 0.15 under setting [1] and 5.51 ± 0.25 under setting [2].

Regarding DALQRYGTSHGAPPARGPRMSYGG [RBMY1A1], the protein stability index under setting [1] stood at 3.82 ± 0.23 and the protein stability index under setting [2] worked out at 3.82 ± 0.21.

Regarding DAQEIMQSLRDLGVKISEQQAEKI [SLC25A25], the protein stability index is, setting by setting: under setting [1], 3.81 ± 0.21; under setting [2], 3.79 ± 0.47.

As for DASVQPGPFRTLLQFLYTGQLDEK [RHOBTB1], the protein stability index reads like this: under setting [1], 2.51 ± 0.33; under setting [2], 2.72 ± 0.3.

DDDAQILPSPVQACSEDSLFLRCS [DRICH1]: the protein stability index is, setting by setting: under setting [1], 4.17 ± 0.16; under setting [2], 4.02 ± 0.37.

DDDKYKITLKYPHYFPVMKKCCIP [NLN]: the protein stability index reads like this: under setting [1], 2.9 ± 0.23; under setting [2], 2.49 ± 0.47.

Regarding DDHGDECSYTDLLPQDEGGGGYSS [KCNA4], the protein stability index under setting [1] is 5.52 ± 0.22 and the protein stability index under setting [2] stood at 5.62 ± 0.082.

As to DDHLQQPLQNQKILKRTGQRYEHG [ZNF649], the protein stability index runs as follows: under setting [1], 4.84 ± 0.085; under setting [2], 4.97 ± 0.23.

Sequence DDSPRSALAAATAAAAAAASAAAA [SPAG8] displayed a protein stability index under setting [1] of 4.79 ± 0.39 and a protein stability index under setting [2] of 4.86 ± 0.42.

On to DDYTSAIEVQPNFEVPYYNRGLIL [TTC32], for which the protein stability index reads like this: under setting [1], 2.4 ± 0.45; under setting [2], 2.42 ± 0.38.

As to DEDLDLIPPKSVNPTCMCCQATSS [FAM219A], the protein stability index stood at 4.63 ± 0.33 under setting [1] and 4.53 ± 0.63 under setting [2].

For the sequence DEGRLVLEFSLLSYAFGKFPTVVW [SOAT1], the protein stability index runs as follows: under setting [1], 2.33 ± 0.68; under setting [2], 3.07 ± 0.14.

Take DEKQQEANETLAEMEEELRYAPLS [VTI1B]: the protein stability index under setting [1] was 5.55 ± 0.15 and the protein stability index under setting [2] came to 5.55 ± 0.2.

Take DESGYVSGYKHAGTYDQKVQGGK [TPPP]: the protein stability index reads like this: (treatment: DMSO, c terminus: native) 5.24 ± 0.15; (treatment: MLN4924 1 uM, 8 h, c terminus: native) 5.4 ± 0.24.

In turn, DEVARRWGKRKNKPKMNYEKLSRG [ETS2] had a protein stability index under setting [1] of 4.11 ± 0.35 and a protein stability index under setting [2] of 4.31 ± 0.52.

As to DEWACELRLFGRVLERAACLRRCK [P3H4], the protein stability index by setting is: under setting [1], 2.74 ± 0.49; under setting [2], 2.8 ± 0.6.

For the sequence DFPDILEQQRKLETYLQNHFAEEE [TENT5C], the protein stability index runs as follows: under setting [1], 4.45 ± 0.27; under setting [2], 4.56 ± 0.22.

On to DGEEIPVQKNILAAASPYIRTKLN [GAN], for which the protein stability index is, setting by setting: under setting [1], 4.13 ± 0.33; under setting [2], 4.32 ± 0.28.

Turning to DGTFSPVTLALFFVLYFLLACWTY [CLCN6], the protein stability index reads like this: under setting [1], 3.07 ± 0.34; under setting [2], 2.9 ± 0.21.

Sequence DHIIEKKRTIIPTLVEAIKEQDGR [DFFB] had a protein stability index under setting [1] of 4.63 ± 0.24 and a protein stability index under setting [2] of 4.68 ± 0.2.

As to DLDETLIHSHHDGVLRPTVRPGTP [CTDNEP1], the protein stability index was determined as 4.53 ± 0.086 under setting [1] and 4.67 ± 0.21 under setting [2].

Regarding DLEPGVLMSAQTITSETTSTTTTT [EPB41L3], the protein stability index was 5.19 ± 0.32 under setting [1] and 5.17 ± 0.11 under setting [2].

Consider DLNNCKNNLEPILEGYISNLRKQL [KRT71], for which the protein stability index reads like this: under setting [1], 2.58 ± 0.21; under setting [2], 2.76 ± 0.5.

Take DLRTVDPETQARLEALLEAAGIGK [ANKRD17]: the protein stability index was 3.84 ± 0.36 under setting [1] and 3.94 ± 0.16 under setting [2].

Consider DLSKPPCRKAKEIRKERKRLKLMQ [ATE1], for which the protein stability index by setting is: under setting [1], 3.55 ± 0.13; under setting [2], 3.64 ± 0.35.

For the sequence DMLREMFSDSRSNNDDDEDEDDED [TAF7L], the protein stability index by setting is: under setting [1], 5.36 ± 0.36; under setting [2], 5.63 ± 0.17.

For the sequence DNAEAAFSDDEEDLNSKGKKREFR [INTS3], the protein stability index was found to be 5.51 ± 0.16 under setting [1] and 5.47 ± 0.2 under setting [2].

Regarding DNWIPLLWCANILGYAVSTFAMVK [DHCR7], the protein stability index was 3.04 ± 0.44 under setting [1] and 3.17 ± 0.12 under setting [2].

On to DPLFGMCEKFLQEVDFFQRYFIAD [INTS4], for which the protein stability index runs as follows: under setting [1], 2.6 ± 0.36; under setting [2], 2.21 ± 0.35.

For the sequence DPLPAAAVGAAAEAEADEEADPPA [SNX8], the protein stability index is 5.59 ± 0.3 under setting [1] and 5.71 ± 0.14 under setting [2].

Turning to DPTWIESPKTNGHIENGPFSLEQQ [SRPK2], the protein stability index is, setting by setting: under setting [1], 4.78 ± 0.11; under setting [2], 4.75 ± 0.22.

Take DQIRQGIQLKSVADGQESTPPTPA [WASL]: the protein stability index reads like this: under setting [1], 5.33 ± 0.16; under setting [2], 5.51 ± 0.15.

For DQNASTHTPQSSVKTSVPSSKSSG [CLINT1], the protein stability index under setting [1] came to 5.02 ± 0.24 and the protein stability index under setting [2] is 5.2 ± 0.14.

Consider DQVPSMQDGSESFFFRHGHRGLLT [SPAG8], for which the protein stability index runs as follows: under setting [1], 3.39 ± 0.28; under setting [2], 3.54 ± 0.35.

With DRKSVKFVETRLRDLPDTPRRFTF [TRIM39], the protein stability index under setting [1] was 2.98 ± 0.12 and the protein stability index under setting [2] turned out to be 3.08 ± 0.29.

Turning to DSDENSKPSVDTEGPALVEIDRSV [MIA2], the protein stability index came to 5.16 ± 0.78 under setting [1] and 5.29 ± 0.56 under setting [2].

As to DSFVCQCSEGFLINEDLKTCSRVD [MATN2], the protein stability index under setting [1] came to 3.57 ± 0.38 and the protein stability index under setting [2] was determined as 3.9 ± 0.45.

Take DSGGSDVDLDPTDGKLFPSDGFRD [ELF3]: the protein stability index by setting is: under setting [1], 5.38 ± 0.16; under setting [2], 5.42 ± 0.15.

Turning to DSLDEARSSGSEGTPADTGDLSPG [PWWP2B], the protein stability index came out at 5.6 ± 0.18 under setting [1] and 5.52 ± 0.15 under setting [2].

DSLLLHSSGQCRRRKRTYWNDSCG [WEE1]: the protein stability index reads like this: under setting [1], 2.75 ± 0.29; under setting [2], 2.82 ± 0.47.

Turning to DSSEKELEPEAAEEALENGPKESL [ACBD3], the protein stability index by setting is: under setting [1], 5.62 ± 0.24; under setting [2], 5.55 ± 0.22.

The sequence DSVAEVAAKARDTGILIFAIGVGQ [MATN2] showed a protein stability index under setting [1] of 2.73 ± 0.9 and a protein stability index under setting [2] of 2.64 ± 0.97.
